From PMC3884107 (PLoS ONE, 2013)
Positions count from the first letter of the chain named. Names and notes keep the numbering of the source.

Legend:
[1] = target: T1, human RON on 3T3-hRON cells (human, UniProt Q04912-1 25-1400); assay: radioligand binding; competition of 125I-MSP with unlabeled MSP on 3T3-hRON cells, 4 h on ice; details: one partner purified
T1 construct: human RON (Recepteur d'Origine Nantais, MST1R) expressed on the surface of 3T3-hRON cells; In the functional rows this molecule also stands for human RON on A2780-hRON, BxPC3, HCT15 and HPC5 cells; also called Recepteur d'Origine Nantais; MST1R; source: 3T3 cells stably transfected with human RON (3T3-hRON), on cells

[2] = target: T1, human RON on 3T3-hRON cells; assay: radioligand binding; competition of 125I-MSP with unlabeled MSP (from 5 µM) on 150,000 3T3-hRON cells, 2 h at room temperature; DMEM, 1% BSA, 325 nM human IgG, 50 mM HEPES pH 7.2, 0.1% sodium azide; Scatchard analysis; details: one partner purified
[3] = target: T2, RON-Fc (human RON Sema, PSI and IPT1 domains, E25-M682, Fc fusion with human IgG1) (human, UniProt Q04912-1 25-682); assay: ELISA; RON-Fc (1 µg/ml) captured on plate-coated rabbit anti-human IgG Fc; MSP 1000 nM-0.2 pM, 1 h, room temperature; 50 mM HEPES pH 7.2, 150 mM NaCl, 5 mM CaCl2, 1% BSA, 0.1% Tween-20; bound MSP detected with anti-His-HRP; 4-parameter fit; details: both partners purified
T2 construct: human RON (Recepteur d'Origine Nantais, MST1R), Sema, PSI and IPT1 domains, E25-M682; also called RON-Fc fusion protein; source: CHO cells; purified (MabSelect Sure, SEC)
T2 sequence (looked up): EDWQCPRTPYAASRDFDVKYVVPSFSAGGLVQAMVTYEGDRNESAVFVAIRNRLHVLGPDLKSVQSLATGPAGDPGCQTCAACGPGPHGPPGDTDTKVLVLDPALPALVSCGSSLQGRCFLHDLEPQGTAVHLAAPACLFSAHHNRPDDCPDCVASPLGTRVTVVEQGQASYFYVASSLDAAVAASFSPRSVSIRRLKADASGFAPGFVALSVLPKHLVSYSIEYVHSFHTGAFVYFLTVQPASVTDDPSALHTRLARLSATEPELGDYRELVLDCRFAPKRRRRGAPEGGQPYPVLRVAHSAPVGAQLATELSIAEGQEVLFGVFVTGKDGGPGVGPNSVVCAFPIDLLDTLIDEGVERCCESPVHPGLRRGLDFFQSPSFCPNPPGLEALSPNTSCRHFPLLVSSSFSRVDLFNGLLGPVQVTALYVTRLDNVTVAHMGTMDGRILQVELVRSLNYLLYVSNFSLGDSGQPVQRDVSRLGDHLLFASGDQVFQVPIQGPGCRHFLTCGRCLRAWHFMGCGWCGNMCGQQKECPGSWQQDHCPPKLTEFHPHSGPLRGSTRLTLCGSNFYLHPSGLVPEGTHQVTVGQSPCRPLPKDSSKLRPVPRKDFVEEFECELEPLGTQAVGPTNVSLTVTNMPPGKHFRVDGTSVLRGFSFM

[4] = target: T2, RON-Fc (human RON Sema, PSI and IPT1 …); assay: BLI; RON-Fc (10 µg/ml) loaded on anti-human IgG Fc biosensors, Octet RED384; MSP, MSP β or scMSP 75-4.7 nM, 400 s association, 400 s dissociation, 30°C; global 1:1 fit, KD = koff/kon; details: both partners purified
[5] = target: T3, RON Sema/PSI (human RON residues E25-P568) (human, UniProt Q04912-1 25-568); assay: SPR; RON Sema/PSI amine-coupled to a CM5 chip, Biacore 3000; MSP, MSP β or scMSP injected 500-3.9 nM in HBS-P (10 mM HEPES pH 7.5, 150 mM NaCl, 0.005% P20), 25°C, 30 µl/min; global 1:1 Langmuir fit, KD = koff/kon; details: both partners purified
T3 construct: human RON (Recepteur d'Origine Nantais, MST1R), Sema and PSI domains, E25-P568; Expressed with an N-terminal gp67 secretion signal; source: Trichoplusia ni insect cells, baculovirus; purified from the media (Ni-NTA, SEC)
T3 sequence (looked up): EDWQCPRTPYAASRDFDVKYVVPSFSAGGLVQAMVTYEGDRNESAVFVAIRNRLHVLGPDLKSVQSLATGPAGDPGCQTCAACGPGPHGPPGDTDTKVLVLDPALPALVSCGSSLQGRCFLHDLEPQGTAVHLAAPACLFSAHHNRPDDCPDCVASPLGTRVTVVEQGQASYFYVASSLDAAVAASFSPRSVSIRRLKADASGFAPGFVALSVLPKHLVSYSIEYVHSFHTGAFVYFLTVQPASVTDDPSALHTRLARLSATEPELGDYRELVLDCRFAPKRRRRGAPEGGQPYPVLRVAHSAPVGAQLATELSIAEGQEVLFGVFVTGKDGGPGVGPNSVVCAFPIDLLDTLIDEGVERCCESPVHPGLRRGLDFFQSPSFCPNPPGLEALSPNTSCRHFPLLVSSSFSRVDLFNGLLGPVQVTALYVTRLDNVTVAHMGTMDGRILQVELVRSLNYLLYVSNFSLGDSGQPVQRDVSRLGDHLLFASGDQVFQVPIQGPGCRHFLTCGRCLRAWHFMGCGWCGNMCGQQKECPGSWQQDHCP

[6] = target: T2, RON-Fc (human RON Sema, PSI and IPT1 …); assay: SPR; RON-Fc captured (50-100 RU) on immobilised anti-human Fc surfaces, CM5 chip, Biacore 3000; MSP, MSP β or scMSP injected 500-3.9 nM in HBS-P (10 mM HEPES pH 7.5, 150 mM NaCl, 0.005% P20), 25°C, 30 µl/min; global 1:1 Langmuir fit, KD = koff/kon; details: both partners purified

B1: MSP 689R (active two-chain macrophage stimulating protein; Q19-G711; C672A) (ligand, human)
chain 1: QRSPLNDFQVLRGTELQHLLHAVVPGPWQEDVADAEECAGRCGPLMDCRAFHYNVSSHGCQLLPWTQHSPHTRLRRSGRCDLFQKKDYVRTCIMNNGVGYRGTMATTVGGLPCQAWSHKFPNDHKYTPTLRNGLEENFCRNPDGDPGGPWCYTTDPAVRFQSCGIKSCREAACVWCNGEEYRGAVDRTESGRECQRWDLQHPHQHPFEPGKFLDQGLDDNYCRNPDGSERPWCYTTDPQIEREFCDLPRCGSEAQPRQEATTVSCFRGKGEGYRGTANTTTAGVPCQRWDAQIPHQHRFTPEKYACKDLRENFCRNPDGSEAPWCFTLRPGMRAAFCYQIRRCTDDVRPQDCYHGAGEQYRGTVSKTRKGVQCQRWSAETPHKPQFTFTSEPHAQLEENFCRNPDGDSHGPWCYTMDPRTPFDYCALRRCADDQPPSILDPPDQVQFEKCGKRVDRLDQRRSKLR
chain 2: VVGGHPGNSPWTVSLRNRQGQHFCGGSLVKEQWILTARQCFSSCHMPLTGYEVWLGTLFQNPQHGEPSLQRVPVAKMVCGPSGSQLVLLKLERSVTLNQRVALICLPPEWYVVPPGTKCEIAGWGETKGTGNDTVLNVALLNVISNQECNIKHRGRVRESEMCTEGLLAPVGACEGDYGGPLACFTHNAWVLEGIIIPNRVCARSRWPAVFTRVSVFVDWIHKVMRLG
notes: MSP alpha-chain of human macrophage stimulating protein: from Q19 of the pro-MSP construct to R483 (cleavage between R483 and V484); disulfide-linked to the beta-chain; Made as single-chain pro-MSP (Q19-G711; C672A; C-terminal 6-His) and cleaved by sHepsin; For the radioligand assay part of the protein was iodinated with 125I (Iodogen); also called HGFL; MST1; source: CHO cells, transiently …
- Kd [1]: 23 nM
- Kd [2]: 12.6 nM
- EC50 [3]: 0.1 nM

B2: MSP β 689R (V484-G711; C588S, C672A) (domain or fragment, human, UniProt P26927 484-711, looked up)
chain: B1 chain 2 with C105S
notes: source: CHO cells, transiently transfected, secreted; purified (Ni-NTA, SEC); not shown: His6, C-terminal, kept
- Kd [4]: 7.5 nM
- koff [4]: 0.0035 s⁻¹
- kon [4]: 470000 M⁻¹ s⁻¹
- Kd [5]: 6.6 nM
- koff [5]: 0.0184 s⁻¹
- kon [5]: 2.71e+06 M⁻¹ s⁻¹
- EC50 [3]: 0.05 nM
- Kd [6]: 9.6 nM
- koff [6]: 0.0175 s⁻¹
- kon [6]: 1.81e+06 M⁻¹ s⁻¹

B3: MSP β 672C 689R (V484-G711; C588S, without C672A) (domain or fragment, human, UniProt P26927 484-711, looked up)
chain: B1 chain 2 with C105S, A189C
notes: source: CHO cells, transiently transfected, secreted; purified (Ni-NTA, SEC)
- Kd [6]: 6.3 nM
- koff [6]: 0.0066 s⁻¹
- kon [6]: 860000 M⁻¹ s⁻¹

B4: MSP β 689C (V484-G711; C588S, C672A; 689C) (domain or fragment, human, UniProt P26927 484-711, looked up)
chain: B1 chain 2 with C105S, R206C
notes: as for B2
- Kd [4]: 9.1 nM
- koff [4]: 0.0093 s⁻¹
- kon [4]: 1.05e+06 M⁻¹ s⁻¹
- Kd [5]: 9.1 nM
- koff [5]: 0.0134 s⁻¹
- kon [5]: 1.46e+06 M⁻¹ s⁻¹
- EC50 [3]: 0.1 nM
- Kd [6]: 9 nM
- koff [6]: 0.0419 s⁻¹
- kon [6]: 4.42e+06 M⁻¹ s⁻¹

B5: MSP 689C (active two-chain macrophage stimulating protein; Q19-G711; C672A; 689C) (ligand, human)
chain 1: B1 chain 1
chain 2: B1 chain 2 with R206C
notes: MSP alpha-chain of human macrophage stimulating protein: from Q19 of the pro-MSP construct to R483 (cleavage between R483 and V484); disulfide-linked to the beta-chain; Made as single-chain pro-MSP (Q19-G711; C672A; C-terminal 6-His) and cleaved by sHepsin; For the radioligand assay part of the protein was iodinated with 125I (Iodogen); source: CHO cells, transiently transfected, secreted; …
- Kd [1]: 25.7 nM
- Kd [2]: 13 nM
- EC50 [3]: 0.2 nM

B6: MSP β 672C 689C (V484-G711; C588S, without C672A; 689C) (domain or fragment, human, UniProt P26927 484-711, looked up)
chain: B1 chain 2 with C105S, A189C, R206C
notes: as for B3
- Kd [6]: 9.7 nM
- koff [6]: 0.0075 s⁻¹
- kon [6]: 770000 M⁻¹ s⁻¹
